Sequences and labels used below:
B1: Ferroportin (Mus musculus), Q9JHI9 (parent)
chain: MTKARDQTHQEGCCGSLANYLTSAKFLLYLGHSLSTWGDRMWHFAVSVFLVELYGNSLLLTAVYGLVVAGSVLVLGAIIGDWVDKNARLKVAQTSLVVQNVSVILCGIILMMVFLHKNELLTMYHGWVLTVCYILIITIANIANLASTATAITIQRDWIVVVAGENRSRLADMNATIRRIDQLTNILAPMAVGQIMTFGSPVIGCGFISGWNLVSMCVEYFLLWKVYQKTPALAVKAALKVEESELKQLTSPKDTEPKPLEGTHLMGEKDSNIRELECEQEPTCASQMAEPFRTFRDGWVSYYNQPVFLAGMGLAFLYMTVLGFDCITTGYAYTQGLSGSILSILMGASAITGIMGTVAFTWLRRKCGLVRTGLFSGLAQLSCLILCVISVFMPGSPLDLSVSPFEDIRSRFVNVEPVSPTTKIPETVFTTEMHMSNMSNVHEMSTKPIPIVSVSLLFAGVIAARIGLWSFDLTVTQLLQENVIESERGIINGVQNSMNYLLDLLHFIMVILAPNPEAFGLLVLISVSFVAMGHLMYFRFAQKTLGNQIFVCGPDEKEVTDENQPNTSVV

Variants of B1 are the subject of the assay. As to conditions: with jak2_human JAK2, O60674.
jak2_human JAK2, O60674, sequence (O60674 whole entry): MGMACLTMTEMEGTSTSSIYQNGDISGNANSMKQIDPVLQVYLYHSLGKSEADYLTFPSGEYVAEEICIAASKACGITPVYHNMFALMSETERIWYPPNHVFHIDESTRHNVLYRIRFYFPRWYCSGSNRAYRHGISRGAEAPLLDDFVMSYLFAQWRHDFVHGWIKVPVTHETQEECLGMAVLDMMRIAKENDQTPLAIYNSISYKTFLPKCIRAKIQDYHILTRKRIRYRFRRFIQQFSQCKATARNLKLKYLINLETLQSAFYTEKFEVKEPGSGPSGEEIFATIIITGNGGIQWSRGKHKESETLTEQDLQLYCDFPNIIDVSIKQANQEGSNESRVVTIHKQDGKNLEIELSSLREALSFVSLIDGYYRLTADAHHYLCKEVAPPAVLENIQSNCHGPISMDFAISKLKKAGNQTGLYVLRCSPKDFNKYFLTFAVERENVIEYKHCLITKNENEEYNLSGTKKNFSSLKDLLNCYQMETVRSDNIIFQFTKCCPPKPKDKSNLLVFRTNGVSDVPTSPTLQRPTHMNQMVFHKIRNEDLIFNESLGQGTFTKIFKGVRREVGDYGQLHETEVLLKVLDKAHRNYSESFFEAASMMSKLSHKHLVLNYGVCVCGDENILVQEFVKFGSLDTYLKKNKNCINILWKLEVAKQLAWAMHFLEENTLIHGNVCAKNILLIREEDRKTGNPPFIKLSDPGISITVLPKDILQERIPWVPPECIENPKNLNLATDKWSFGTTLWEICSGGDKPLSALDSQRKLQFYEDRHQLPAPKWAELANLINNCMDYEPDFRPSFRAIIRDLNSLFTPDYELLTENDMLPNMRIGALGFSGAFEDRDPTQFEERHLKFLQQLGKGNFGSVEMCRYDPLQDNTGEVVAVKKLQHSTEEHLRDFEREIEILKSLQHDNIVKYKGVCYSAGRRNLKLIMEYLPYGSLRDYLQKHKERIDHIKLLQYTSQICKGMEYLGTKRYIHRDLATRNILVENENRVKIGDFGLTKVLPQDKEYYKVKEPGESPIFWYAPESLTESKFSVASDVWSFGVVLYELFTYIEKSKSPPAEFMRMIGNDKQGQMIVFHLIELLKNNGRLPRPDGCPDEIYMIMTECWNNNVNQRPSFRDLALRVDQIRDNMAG
For MTKARDQTHQEGCCGSLANYLTSAKFLLYLGHSLSTWGDRMWHFAVSVFLVELYGNSLLLTAVYGLVVAGSVLVLGAIIGDWVDKNARLKVAQTSLVVQNVSVILCGIILMMVFLHKNELLTMYHGWVLTVCYILIITIANIANLASTATAITIQRDWIVVVAGENRSRLADMNATIRRIDQLTNILAPMAVGQIMTFGSPVIGCGFISGWNLVSMCVEYFLLWKVYQKTPALAVKAALKVEESELKQLTSPKDTEPKPLEGTHLMGEKDSNIRELECEQEPTCASQMAEPFRTFRDGWVSYYNQPVFLAGMGLAFLYMTVLGFDYITTGYAYTQGLSGSILSILMGASAITGIMGTVAFTWLRRKCGLVRTGLFSGLAQLSCLILCVISVFMPGSPLDLSVSPFEDIRSRFVNVEPVSPTTKIPETVFTTEMHMSNMSNVHEMSTKPIPIVSVSLLFAGVIAARIGLWSFDLTVTQLLQENVIESERGIINGVQNSMNYLLDLLHFIMVILAPNPEAFGLLVLISVSFVAMGHLMYFRFAQKTLGNQIFVCGPDEKEVTDENQPNTSVV [C326Y], the “effect of a mutation on the interaction” value was “disrupting interaction”.

The values are drawn from IntAct's records for PubMed 19234114.
